# B1: CR6261 (antibody, V domains shown)
# VH: EVQLVESGAEVKKPGSSVKVSCKASGGPFRSYAISWVRQAPGQGPEWMGGIIPIFGTTKYAPKFQGRVTITADDFAGTVYMELSSLRSEDTAMYYCAKHMGYQVRETMDVWGKGTTVTVSS
# VL: QSVLTQPPSVSAAPGQKVTISCSGSSSNIGNDYVSWYQQLPGTAPKLLIYDNNKRPSGIPDRFSGSKSGTSATLGITGLQTGDEANYYCATWDRRPTAYVVFGGGTKLTVLG
# What was measured:
# Test in all cases: ELISA signal over HTRF expression signal, P. pastoris
# Settings in all cases: remark: other sources report otherwise
# 11B4 = molecular target: 11B4
# 11F4 = molecular target: 11F4
# 11H6 = molecular target: 11H6
# 26H1 = molecular target: 26H1
# 27B10 = molecular target: 27B10
# 2D9 = molecular target: 2D9
# 36D6 = molecular target: 36D6
# 36E4 = molecular target: 36E4
# 36H2 = molecular target: 36H2
# 48B11 = molecular target: 48B11
# 48D11 = molecular target: 48D11
# 51G3 = molecular target: 51G3
# 55H2 = molecular target: 55H2
# 56F4 = molecular target: 56F4
# 58A11 = molecular target: 58A11
# 58C8 = molecular target: 58C8
# 61A9 = molecular target: 61A9
# 63C3 = molecular target: 63C3
# 66C8 = molecular target: 66C8
# 67C10 = molecular target: 67C10
# 69D2 = molecular target: 69D2
# 71A4 = molecular target: 71A4
# 71D3 = molecular target: 71D3
# 71H2 = molecular target: 71H2
# 75E9 = molecular target: 75E9
# 79C2 = molecular target: 79C2
# 7A7 = molecular target: 7A7
# 7B6 = molecular target: 7B6
# 81F11 = molecular target: 81F11
# 85A7 = molecular target: 85A7
# 86B3 = molecular target: 86B3
# 86F1 = molecular target: 86F1
# 86G2 = molecular target: 86G2
# 87H5 = molecular target: 87H5
# 91C4 = molecular target: 91C4
# 91F10 = molecular target: 91F10
# 96H8 = molecular target: 96H8
# 9C10 = molecular target: 9C10
binder,measurement,setting,value
B1,fold increase of ratio over parental SEQ ID NO: 6,11B4,3.23
same,ratio (binding signal/HTRF signal),11B4,19.2
same,fold increase of ratio over parental SEQ ID NO: 6,11F4,2.54
same,ratio (binding signal/HTRF signal),11F4,15.1
same,fold increase of ratio over parental SEQ ID NO: 6,11H6,7.87
same,ratio (binding signal/HTRF signal),11H6,46.7
same,fold increase of ratio over parental SEQ ID NO: 6,26H1,1.62
same,ratio (binding signal/HTRF signal),26H1,9.64
same,fold increase of ratio over parental SEQ ID NO: 6,27B10,2.75
same,ratio (binding signal/HTRF signal),27B10,16.3
same,fold increase of ratio over parental SEQ ID NO: 6,2D9,2.76
same,ratio (binding signal/HTRF signal),2D9,16.4
same,fold increase of ratio over parental SEQ ID NO: 6,36D6,1.83
same,ratio (binding signal/HTRF signal),36D6,10.8
same,fold increase of ratio over parental SEQ ID NO: 6,36E4,2.07
same,ratio (binding signal/HTRF signal),36E4,12.3
same,fold increase of ratio over parental SEQ ID NO: 6,36H2,1.95
same,ratio (binding signal/HTRF signal),36H2,11.6
same,fold increase of ratio over parental SEQ ID NO: 6,48B11,3.41
same,ratio (binding signal/HTRF signal),48B11,20.3
same,fold increase of ratio over parental SEQ ID NO: 6,48D11,2.98
same,ratio (binding signal/HTRF signal),48D11,17.7
same,fold increase of ratio over parental SEQ ID NO: 6,51G3,9.97
same,ratio (binding signal/HTRF signal),51G3,59.2
same,fold increase of ratio over parental SEQ ID NO: 6,55H2,3.28
same,ratio (binding signal/HTRF signal),55H2,19.5
same,fold increase of ratio over parental SEQ ID NO: 6,56F4,3.21
same,ratio (binding signal/HTRF signal),56F4,19.1
same,fold increase of ratio over parental SEQ ID NO: 6,58A11,1.67
same,ratio (binding signal/HTRF signal),58A11,9.93
same,fold increase of ratio over parental SEQ ID NO: 6,58C8,2.51
same,ratio (binding signal/HTRF signal),58C8,14.9
same,fold increase of ratio over parental SEQ ID NO: 6,61A9,5.94
same,ratio (binding signal/HTRF signal),61A9,35.3
same,fold increase of ratio over parental SEQ ID NO: 6,63C3,4.15
same,ratio (binding signal/HTRF signal),63C3,24.7
same,fold increase of ratio over parental SEQ ID NO: 6,66C8,2.29
same,ratio (binding signal/HTRF signal),66C8,13.6
same,fold increase of ratio over parental SEQ ID NO: 6,67C10,3.99
same,ratio (binding signal/HTRF signal),67C10,23.7
same,fold increase of ratio over parental SEQ ID NO: 6,69D2,2.19
same,ratio (binding signal/HTRF signal),69D2,13
same,fold increase of ratio over parental SEQ ID NO: 6,71A4,10.2
same,ratio (binding signal/HTRF signal),71A4,60.5
same,fold increase of ratio over parental SEQ ID NO: 6,71D3,5.67
same,ratio (binding signal/HTRF signal),71D3,33.7
same,fold increase of ratio over parental SEQ ID NO: 6,71H2,11.2
same,ratio (binding signal/HTRF signal),71H2,66.3
same,fold increase of ratio over parental SEQ ID NO: 6,75E9,2.17
same,ratio (binding signal/HTRF signal),75E9,12.9
same,fold increase of ratio over parental SEQ ID NO: 6,79C2,8.62
same,ratio (binding signal/HTRF signal),79C2,51.2
same,fold increase of ratio over parental SEQ ID NO: 6,7A7,12.4
same,ratio (binding signal/HTRF signal),7A7,73.4
same,fold increase of ratio over parental SEQ ID NO: 6,7B6,1.66
same,ratio (binding signal/HTRF signal),7B6,9.84
same,fold increase of ratio over parental SEQ ID NO: 6,81F11,5.37
same,ratio (binding signal/HTRF signal),81F11,31.9
same,fold increase of ratio over parental SEQ ID NO: 6,85A7,4.72
same,ratio (binding signal/HTRF signal),85A7,28
same,fold increase of ratio over parental SEQ ID NO: 6,86B3,10.5
same,ratio (binding signal/HTRF signal),86B3,62.4
same,fold increase of ratio over parental SEQ ID NO: 6,86F1,2.92
same,ratio (binding signal/HTRF signal),86F1,17.4
same,fold increase of ratio over parental SEQ ID NO: 6,86G2,1.93
same,ratio (binding signal/HTRF signal),86G2,11.5
same,fold increase of ratio over parental SEQ ID NO: 6,87H5,1.64
same,ratio (binding signal/HTRF signal),87H5,9.77
same,fold increase of ratio over parental SEQ ID NO: 6,91C4,4.35
same,ratio (binding signal/HTRF signal),91C4,25.8
same,fold increase of ratio over parental SEQ ID NO: 6,91F10,1.78
same,ratio (binding signal/HTRF signal),91F10,10.6
same,fold increase of ratio over parental SEQ ID NO: 6,96H8,4.8
same,ratio (binding signal/HTRF signal),96H8,28.5
same,fold increase of ratio over parental SEQ ID NO: 6,9C10,2.91
same,ratio (binding signal/HTRF signal),9C10,17.3

# — patent publication US20170209564A1
